Laboratory results from patent US20020035240A1 (Amgen, published 2002).

Target: T1, rat p55CDC (rat, UniProt Q62623 1-499, phosphorylated in CHO cells (sites not given))
T1 construct: 499 amino acids; In the assays it came from cell lysates: CHO cells transfected with the 1.8 kb rat cDNA (PMTp55s), or the endogenous protein of Rat1 cells
Test: co-immunoprecipitation with p55CDC antibody from 35S-labelled CHO cell lysates, SDS-PAGE
Method: Autoradiography was performed for 1 week.
In vitro translation was performed using a nuclease treated rabbit reticulocyte lysate (Promega, Madison, WI) and [³H]-leucine (Amersham TRK683). The mRNA template was produced by using the Stratagene in vitro transcription kit and the p55CDC cDNA subcloned into the Bluescript vector as substrate. Cell lysates were prepared as described (59) after rinsing the plates twice with PBS. Cells were lysed in modified radioimmunoprecipitation assay (RIPA) buffer with additional […] (150 mM NaCl, 1.0% NP-40, 1.0% sodium deoxycholate, 0.1% SDS, 2 mM EDTA, 6 mM Na₂HPO₄, 4 mM NaH₂PO4 50 mM NaF, 200 μM Na₃VO₄, 20 μg/ml aprotinin, 1 μg/ml leupeptin, 10 μg/ml soybean trypsin inhibitor and 50 μg/ml phenylmethyl sulfonyl fluoride). All protease inhibitors were purchased from Sigma. Protein concentrations were estimated using the Bicinchoninic acid reagent (Pierce). For 250 μg lysate in a final volume of 700 μl RIPA buffer, we used 7 μl of affinity purified p55CDC antibodies (140 μg protein/ml) or 12 μl of p55CDC competed antiserum (700 μg protein/ml) which gave an equivalent level of immunoglobulin for both preparations. Immunoprecipitation of p34^cdc2 complexes was done using 10 μl of the p34^cdc2 mouse monoclonal antibody 17 (Santa Cruz Biotechnology, Santa Cruz, Calif.). […]

T1 sequence (Q62623 whole entry D77E): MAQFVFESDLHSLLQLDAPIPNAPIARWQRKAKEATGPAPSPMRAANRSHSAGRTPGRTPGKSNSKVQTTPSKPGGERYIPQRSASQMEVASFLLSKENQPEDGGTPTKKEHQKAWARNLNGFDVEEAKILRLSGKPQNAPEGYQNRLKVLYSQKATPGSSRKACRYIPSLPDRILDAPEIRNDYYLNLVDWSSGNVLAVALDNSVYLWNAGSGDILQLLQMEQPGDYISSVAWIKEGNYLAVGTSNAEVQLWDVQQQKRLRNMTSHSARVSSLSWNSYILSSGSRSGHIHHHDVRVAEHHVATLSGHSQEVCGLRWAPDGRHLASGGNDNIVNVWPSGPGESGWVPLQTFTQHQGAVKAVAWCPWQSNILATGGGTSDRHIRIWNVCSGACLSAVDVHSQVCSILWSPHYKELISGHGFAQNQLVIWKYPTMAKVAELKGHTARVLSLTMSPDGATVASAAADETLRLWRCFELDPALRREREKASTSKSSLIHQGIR

binding result: no binding
B1: p34cdc2 (CHO cells) (enzyme)
chain: not shown
